Target: GST-tagged NbSAMS2 (GST-NbSAMS2) (N. benthamiana)

GST-C4 (natural protein) was tested, and the NbSAMS2 enzymatic activity in vitro (conversion of 35S-Met to 35S-SAM, TLC) after pre-incubation with varying amounts of GST-C4; reduction of activity at an 8:1 molar ratio of C4:NbSAMS2 was 80%.

Reference: paper PMC6133388
